Substitutions are numbered along the chain they refer to. Blank lines part the entries; values can stand above or below the binder they belong to.
Tests used:
[1] = biological target: T1, human CD19 exon1-3-His tag protein (human, UniProt P15391 20-186, limits assumed); test: ELISA on coated human CD19 exon 1-3-His
T1 construct: membrane-distal part of the extracellular region, made in HEK293E cells; not shown: His tag
T1 sequence (looked up): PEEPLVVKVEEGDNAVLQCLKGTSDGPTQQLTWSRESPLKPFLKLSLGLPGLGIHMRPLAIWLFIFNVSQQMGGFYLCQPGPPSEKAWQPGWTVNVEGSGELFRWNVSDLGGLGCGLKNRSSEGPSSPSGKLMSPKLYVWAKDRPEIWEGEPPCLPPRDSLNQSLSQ

monkey CD19-His protein = biological target: T2, monkey CD19-His protein (monkey); test: SPR Biacore, method of example 7.1, monkey CD19-His
T2 construct: bought protein; also called monkey CD19 protein
Method: A sample buffer and a running buffer were HBS-EP+ (10 mM HEPES, 150 mM NaCl, 3 mM EDTA and 0.05% surfactant P20) (GE Healthcare; BR-1006-69). The flow-through cell was set to 25° C. The sample block was set to 16° C. Both were pretreated with the running buffer. In each cycle, an antibody to be detected was first captured with a Protein A chip, and then a single concentration of CD19 antigen protein was injected. The binding and dissociation processes of the antibody and the antigen protein were recorded, and finally Glycine pH 1.5 (GE Healthcare; BR-1003-54) was used to complete chip regeneration. The binding was measured by injecting different concentrations of recombinant human CD19-His proteins in a solution for 240 s with a flow rate of 30 μl/min. The concentration started from 200 nM (see the detailed results for the actual concentration in the test) and was diluted at 1:1, making a total of 5 concentrations. The dissociation phase was monitored for up to 600 s and was triggered by switching from sample solution to running buffer. The surface was regenerated by washing with a 10 mM glycine solution (pH 1.5) for 30 s at a flow rate of 30 μl/min. Bulk refractive index difference was corrected by subtracting the response obtained from the goat anti-human Fc surface. Blank injection was also subtracted (=double reference). For calculation of apparent KD and other kinetic parameters, Langmuir 1:1 model was used.
According to the method in example 7.1, the affinity of the chimeric antibodies to monkey CD19 (ACROBiosystems, catalog number: 90051-C08H) protein was determined.

Human CD19-his protein = biological target: T3, Human CD19-his protein (human, UniProt P15391 20-291); test: SPR Biacore, Ab captured on Protein A, CD19-His analyte
T3 construct: bought protein; also called recombinant human CD19-His; CD19 full-length protein; not shown: His tag
T3 sequence (looked up): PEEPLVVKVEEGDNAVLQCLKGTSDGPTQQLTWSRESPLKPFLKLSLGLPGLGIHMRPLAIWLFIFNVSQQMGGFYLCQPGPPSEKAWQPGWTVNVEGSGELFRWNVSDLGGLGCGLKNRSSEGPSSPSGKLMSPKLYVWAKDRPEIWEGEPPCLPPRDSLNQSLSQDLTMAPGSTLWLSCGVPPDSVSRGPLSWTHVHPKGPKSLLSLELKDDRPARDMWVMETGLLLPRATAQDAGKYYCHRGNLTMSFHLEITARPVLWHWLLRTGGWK
How it was run: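 Apparent KD came from a Langmuir 1:1 fit of double-referenced sensorgrams. Recombinant human CD19-His analyte (top 200 nM, 1:1 serial dilution, 5 concentrations) flowed over Protein A-captured antibody for 240 s at 30 μl/min, then buffer for up to 600 s. Running buffer HBS-EP+ at 25 °C; regeneration with 10 mM glycine pH 1.5.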

murine CD19 protein = biological target: T4, murine CD19 protein (murine, UniProt P25918 17-287, limits assumed); test: ELISA
T4 construct: bought protein; also called commercial murine CD19
T4 sequence (looked up): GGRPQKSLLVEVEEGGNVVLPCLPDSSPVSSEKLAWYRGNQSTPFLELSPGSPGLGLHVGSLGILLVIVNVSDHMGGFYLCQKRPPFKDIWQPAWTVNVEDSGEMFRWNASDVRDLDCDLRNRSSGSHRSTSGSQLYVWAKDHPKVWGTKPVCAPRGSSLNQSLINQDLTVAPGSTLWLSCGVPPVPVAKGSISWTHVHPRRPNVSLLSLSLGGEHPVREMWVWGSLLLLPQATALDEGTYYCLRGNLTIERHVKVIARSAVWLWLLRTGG
Method: Human CD19-his protein (purchased from ACROBiosystems, catalog number: CD9-H52H2) was diluted with PBS to a final concentration of 4 μg/mL, and then added to a 96-well ELISA plate at 100 μl/well. The plate was sealed with a plastic film and incubated overnight at 4° C., the plate was washed 2 times with PBS the next day, and then a blocking solution [PBS+2% (w/w) BSA] was added for blocking at room temperature for 2 h. The blocking solution was poured off, and 100 nM gradiently diluted CD19 chimeric antibody or control antibody was added at 50 μl/well. After incubation at 37° C. for 2 h, the plate was washed 3 times with PBS. […] TMB substrate was added at 50 μl/well, and incubated at room temperature for 10 min, and then a stop solution (1.0 N HCl) was added at 50 μl/well. The OD450 nm values were read by an ELISA microplate reader (Multimode Plate Reader, EnSight, purchased from Perkin Elmer).
In order to detect the species cross-binding activity of the chimeric antibodies, an ELISA plate was coated with commercial murine CD19 (ACROBiosystems, catalog number: 50510-M08H) and monkey CD19 (ACROBiosystems, catalog number: 90051-C08H), respectively, and the ELISA detection was performed according to the method in example 5.1. […]

[2] = biological target: T5, human CD19 exon1-3-his protein (human, UniProt P15391 20-186, limits assumed); test: ELISA, coated at 2 ug/mL
T5 construct: made in HEK293E cells; also called membrane-distal end; not shown: His tag
T5 sequence (looked up): T1 sequence (looked up)

EC50 (read off the curve) [1]: ~0.1 nM
Kd (monkey CD19-His protein): 7.59 pM
koff (monkey CD19-His protein): 1.4e-07 s⁻¹
kon (monkey CD19-His protein): 18400 M⁻¹ s⁻¹
Kd (Human CD19-his protein): 2 nM
koff (Human CD19-his protein): 0.000169 s⁻¹
kon (Human CD19-his protein): 84400 M⁻¹ s⁻¹
B1: F3.77.6 (antibody, human IgG1, V domains shown)
VH: EFQLQQSGPELVKPGASVKISCKASGYSFTDYNMNWVKQSNGKSLEWIGTINPNYITSYNQKFKGKATLTVDQSSSTAYMQLNSLTSEDSAVYYCAGDYKGYWGQGTTLTVSS
VL: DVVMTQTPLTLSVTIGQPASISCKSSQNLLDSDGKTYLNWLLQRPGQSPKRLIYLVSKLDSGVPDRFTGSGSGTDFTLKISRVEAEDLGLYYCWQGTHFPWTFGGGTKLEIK
notes: human-murine chimeric antibody, human IgG1 constant

binding result (murine CD19 protein): no binding
binding result [2]: no binding
B2: F3.121.4-L2H1 (antibody, mouse IgG1, kappa, V domains shown)
VH: EVQLVQSGAEVKKPGASVKVSCKASGYTFTNYWMHWVRQAPGQRLEWMGEIDPSDNYANYNQEFQGRVTITVDKSASTAYMELSSLRSEDTAVYYCARHDGYFGALDYWGQGTTVTVSS
VL: EIVLTQSPDFQSVTPKEKVTITCSASSSISSNYLHWYQQKPDQSPKLLIKRTSNLASGVPSRFSGSGSGTDFTLTINSLEAEDAATYYCQQASSIPRMFTFGQGTKLEIKR
notes: murine IgG1 constant regions; also called humanized antibody of F3.121.4

binding result (murine CD19 protein): no binding
binding result [2]: no binding
B3: F3.121.4-L3H2 (antibody, mouse IgG1, kappa, V domains shown)
VH: B2 VH with R44G
VL: B2 VL with L47F, K50Y
notes: as for B2

binding result (murine CD19 protein): no binding
binding result [2]: no binding
B4: F3.121.4-L3H4 (antibody, mouse IgG1, kappa)
heavy: EVQLQQSGAEVKKPGASVKVSCKASGYTFTNYWMHWVRQRPGQGLEWMGEIDPSDNYANYNQEFQGRVTITVDKSASTAYMELSSLRSEDTAVYYCARHDGYFGALDYWGQGTTVTVSSAKTTPPSVYPLAPGSAAQTNSMVTLGCLVKGYFPEPVTVTWNSGSLSSGVHTFPAVLQSDLYTLSSSVTVPSSTWPSETVTCNVAHPASSTKVDKKIVPRDCGCKPCICTVPEVSSVFIFPPKPKDVLTITLTPKVTCVVVDISKDDPEVQFSWFVDDVEVHTAQTQPREEQFNSTFRSVSELPIMHQDWLNGKEFKCRVNSAAFPAPIEKTISKTKGRPKAPQVYTIPPPKEQMAKDKVSLTCMITDFFPEDITVEWQWNGQPAENYKNTQPIMDTDGSYFVYSKLNVQKSNWEAGNTFTCSVLHEGLHNHHTEKSLSHSPGK
light: EIVLTQSPDFQSVTPKEKVTITCSASSSISSNYLHWYQQKPDQSPKFLIYRTSNLASGVPSRFSGSGSGTDFTLTINSLEAEDAATYYCQQASSIPRMFTFGQGTKLEIKRADAAPTVSIFPPSSEQLTSGGASVVCFLNNFYPKDINVKWKIDGSERQNGVLNSWTDQDSKDSTYSMSSTLTLTKDEYERHNSYTCEATHKTSTSPIVKSFNRNEC
notes: as for B2

binding result (murine CD19 protein): no binding
binding result [2]: no binding
B5: F3.121.4-L2H3 (antibody, mouse IgG1, kappa)
heavy: B4 heavy with Q5V
light: B4 light with F47L, Y50K
notes: as for B2

binding result (murine CD19 protein): no binding
binding result [2]: no binding
B6: F3.121.4-L3H3 (antibody, mouse IgG1, kappa)
heavy: B4 heavy with Q5V
light: B4 light
notes: as for B2

binding result (murine CD19 protein): no binding
binding result [2]: no binding
B7: F3.121.4-L3H1 (antibody, mouse IgG1, kappa, V domains shown)
VH: B2 VH
VL: B2 VL with L47F, K50Y
notes: as for B2

binding result (murine CD19 protein): no binding
binding result [2]: no binding
B8: F3.121.4-L2H4 (antibody, mouse IgG1, kappa)
heavy: B4 heavy
light: B4 light with F47L, Y50K
notes: as for B2

EC50 (read off the curve) [1]: ~0.03 nM
Kd (monkey CD19-His protein): 803 pM
koff (monkey CD19-His protein): 5.62e-05 s⁻¹
kon (monkey CD19-His protein): 70000 M⁻¹ s⁻¹
Kd (Human CD19-his protein): 1.99 nM
koff (Human CD19-his protein): 0.000138 s⁻¹
kon (Human CD19-his protein): 69300 M⁻¹ s⁻¹
B9: F3.124.7 (antibody, human IgG1, V domains shown)
VH: EVQLQQSGPVLVKPGASVKMSCKASGYTFTDYYMNWVKQRHGKSLEWIGISNPYNGGTSYNQKFKDKATLTVDKSSSTAYMELNSLTSEDSAVYYCAREGGTAQPTSGMDYWGQGTSVTVSS
VL: NIMMTQSPSSLAVSAGEKVTMSCKSSQSVLYSSNQKNYLAWYQQKPGQSPKLLIYWASTRESGVPDRFTGSGSGTDFTLTISSVQPEDPAVYYCHQYRSSYTFGGGTKLEIK
notes: as for B1

EC50 (read off the curve) [1]: ~0.3 nM
Kd (monkey CD19-His protein): 5.83 pM
koff (monkey CD19-His protein): 9.72e-08 s⁻¹
kon (monkey CD19-His protein): 16700 M⁻¹ s⁻¹
Kd (Human CD19-his protein): 6.05 nM
koff (Human CD19-his protein): 0.000326 s⁻¹
kon (Human CD19-his protein): 53900 M⁻¹ s⁻¹
B10: F3.118.14 (antibody, human IgG1, V domains shown)
VH: QVQLQQSGAELVRPGASVTLSCKASGYTFPDYEIHWVKQTPVHGLEWIGAIDPETGGIGYNQKFTGKAMLTADKSSSTAYMELRSLTSEDSAVYFCTRNYGSRWGQGSTLTVSS
VL: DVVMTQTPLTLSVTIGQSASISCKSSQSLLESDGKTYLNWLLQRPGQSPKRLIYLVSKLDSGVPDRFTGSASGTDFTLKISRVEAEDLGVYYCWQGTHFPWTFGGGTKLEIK
notes: as for B1

From patent US20250042994A1 (HAINAN SIMCERE ZAIMING PHARMACEUTICAL, published 2025)
